Where two headings read alike, the source gives them in different places.
Tests used:
[1] = test system: excised bovine conjunctiva; test: Nanoparticle transport and uptake, excised bovine conjunctiva in modified Ussing chambers; type: in vitro ADME
Protocol: (§1) Nanoparticle uptake and transport studies were performed using excised bovine cornea and conjunctiva mounted in vertical diffusion chambers. Modified Ussing chambers (Navicyte, Reno, N.Y.) were used to mount bovine corneas and conjunctivas for transport studies. The tissues were exposed to 1.5 ml of assay buffer with either conjugated or unconjugated nanoparticles (100 μg/ml) on the mucosal/tear side (donor side). The area of exposure is 0.64 cm^2 for conjunctiva and slightly greater for cornea due to curvature. The receiver side was exposed to 1.5 ml of assay buffer without nanoparticles. The buffers were pre-equilibrated to 37° C. or 4° C. as required and the chambers were maintained at the desired temperature. […] The experiment was terminated at 4 hours and the samples were stored in polypropylene tubes at 4° C. until analysis.
(§2) At the end of 4 hour transport studies, the tissue area exposed to particle suspension (aperture area: 0.64 cm^2) were cut and washed thrice with assay buffer followed by the acid buffer (pH 5.0). The tissues were then homogenized in 2% Triton-X using Tissue Tearor™. The tissue debris was separated by centrifugation at 3000 rpm (Marathon Micro AR) for 10 minutes. The supernatant was collected to analyze the amount of nanoparticles taken up by the tissue. The supernatant was analyzed by spectrofluorometry at excitation and emission wavelengths of 505 and 515 nm, respectively.

[2] = Particle size, polydispersity and zeta-potential by dynamic light scattering; type: physicochemical; settings: Table 2, polystyrene nanoparticles
Protocol: Nanoparticle carrier particles were formed by the methods of the preceding Example, and characterized as follows. The particle size and the zeta-potential were measured using Zeta Plus zeta-potential analyzer (Brookhaven Instruments Ltd., New York, N.Y.), which employs the dynamic light scattering technique for particle size measurement. The particle size and zeta-potential measurements were made after 1:1000 dilution of particle stock in filtered deionized water. Further, the particles were visualized using a transmission electron microscope (TEM). The carbon-coated grids were floated on a suspension droplet of plain or functionalized nanoparticles on a flexible plastic film (Parafilm, Pechiney Plastic Packaging, Neenah, Wis.) to allow the adsorption of nanoparticles onto the grid. After drying the particles, uranyl acetate was added as a negative stain to the carbon grid and allowed to react with the particles. This procedure makes the particles electron dense, allowing their visualization using an electron microscope. The particles were photographed using EM410 Phillips electron microscope (Eindhoven, The Netherlands) set at 60 kV and a magnification of 153000×.
Characterization of particles: The particle size and the zeta-potential were measured using ZetaPlus® zeta-potential analyzer, Brookhaven Instruments Ltd. (New York, N.Y.), which employs the dynamic light scattering technique for particle size measurement. The particle size and zeta-potential measurements were carried out after 1:1000 dilution of particle stock in filtered deionized water before lyophilization in filtered deionized water. The effective diameter of conjugated nanoparticles was higher than that of unconjugated nanoparticles.
Particle Size Analysis: Particle size and zeta-potential of the nanoparticles before and after conjugation following lyophilization were measured in double distilled water (100 μl of particle/1 ml of water) using dynamic light scattering (DLS). After lyophilization the plasmid loaded particles were weighed (1 mg) into glass Kimble tubes. To each tube, 1 ml of double distilled water was added and vortexed at high speed (Vortex Genie, Scientific Industries, Bohemia, N.Y.) till the particles were resuspended. The particle size and zeta potential was determined using dynamic light scattering after dilution (1:10 in double distilled water) (Brookhaven Instruments Corp., Holtsville, N.Y.). Nanoparticle size after lyophilization was 210.4±0.68 nm and zeta potential was −32.85±0.87 mV. Nanoparticle size and zeta potential was measured after conjugation with deslorelin and transferrin. Similarly, the unconjugated nanoparticles were also treated under the same conditions as with the conjugated nanoparticles (the conjugation protocol as mentioned above).
Transport studies were conducted in bovine nasal tissue. Bovine nasal tissue was obtained from freshly slaughtered cattle, and different regions (MTA, MTP, ITP) were prepared as described in Example 13. Nanoparticles coupled to deslorelin or transferring via aldehyde sulfate moieties were prepared as described in Example 3. The nanoparticle size was measured using a Zeta Plus Analyzer (Brookhaven Instruments Limited, UK). Particle size was analyzed before and after ligand conjugation in deionized filtered water.

excised bovine cornea = test: Nanoparticle transport and uptake, excised bovine cornea in modified Ussing chambers; type: in vitro ADME
Protocol: as §1, §2

[3] = test system: bovine corneal epithelium, stroma, endothelium and aqueous humor; test: Eye drop nanoparticle uptake in excised (ex vivo) bovine eye model; type: in vitro ADME
Protocol: The precorneal residence of eye drops is very short and effective delivery to the cornea requires rapid binding and entry of drugs or carriers in vivo. The in vivo situation was simulated using an intact bovine eye for an ex vivo model. […] Then, the particle uptake at 5 and 60 min was measured following thorough washing of the eye surface to remove any loosely adherent particles. The uptake was expected to be the highest for the solutes or carriers tightly bound to the corneal surface or for those that are rapidly taken up by the corneal epithelium. To maintain the surface moisture and to simulate tear flow in part, buffer drops (50 μl) were administered every 15 min, and the water bath was sealed.
Freshly excised bovine eyes were obtained from a local slaughterhouse (Nebraska Beef, Omaha, Nebr.). The experiments were initiated within 2-3 hours after sacrifice. For the experiment, bovine eyes were placed in Teflon coated wells containing assay buffer to immerse the posterior segment, while exposing the cornea towards the surface. The Teflon coated well plate was placed in a shaking water bath maintained at 37° C. and the water bath was sealed with Saran Wrap™ (S.C. Johnson & Son, Inc., Racine, Wis.). Alternatively, the setup was placed in a cold room maintained at 4° C. Prior to dosing, the eyes were equilibrated for about 30 min with assay buffer at 37° C. or 4° C. as required. The measured temperatures of the vitreous humor and aqueous humor in the 37° C. study were ˜37° C. and ˜35° C., respectively. The measured temperature was ˜5° C. for both vitreous humor as well as aqueous humor in the 4° C. study. In the ex vivo studies, either 5 or 60 min time points were chosen since eye drops are rapidly cleared from the tissue surface and because high solute uptake is desired in a short time with eye drops.
Ex vivo model studies involved administration of a 50 μl dosing solution/suspension drop to the cornea followed by 50 μl drops of assay buffer on the cornea every 15 minutes to maintain corneal moisture. At the end of 0, 5, or 60 minutes study, the corneal surface was washed thrice with assay buffer (1 ml each time) followed by three washes with acid buffer (1 ml each time; assay buffer adjusted to pH 5.0 with HCl) to remove any loosely adherent nanoparticles prior to tissue analysis. The same protocol was followed even when plain buffer drops were assessed. To initiate the uptake experiment, a 50 μl eye drop of 10 mg/ml (in studies assessing the influence of epithelium in particle uptake) or 1 mg/ml nanoparticle suspension (unconjugated nanoparticles with carboxylate functionalities, deslorelin-CA and transferrin-CA) was topically administered to isolated bovine eyeballs. Buffer and wash treatments were performed as described above. At 5 and 60 minutes after drop instillation, the incubation was terminated and the corneal epithelium, stroma, endothelium and aqueous humor (0.5 ml) were isolated from the eyeball. The tissues were homogenized in 2% Triton-X. The supernatant obtained after centrifuging tissue homogenate at 5000 rpm (Marathon Micro AR, Fisher Scientific) for 10 minutes was analyzed by spectrofluorometry at excitation and emission wavelengths of 505 and 515 nm, respectively.

[4] = 3H-mannitol transport across excised bovine cornea (corneal barrier integrity); type: in vitro ADME; settings: read-out: apparent permeability coefficient of mannitol
Protocol: The corneal barrier integrity in the ex vivo bovine model of Example 5 was also studied by analysis of ^3H-mannitol transport, with or without nanoparticle exposure. ^3H-mannitol was obtained from American Radiolabeled Chemicals, Inc. (St. Louis, Mo.). ^3H-mannitol transport across excised bovine cornea was performed without any treatment or after dosing the bovine ex vivo eye model with a 50 μl drop of assay buffer or 50 μl of 1 mg/ml nanoparticle suspension followed by incubation up to 60 min with buffer treatments as described above. Temperature was maintained at 37° C.
At 0, 5 and 60 minutes after assay buffer drop instillation and 60 min after nanoparticles drop instillation, the eyes were washed thrice with assay buffer (1 ml each time) and the corneas were isolated from the eyeball. The tissues were then mounted in modified Ussing chambers (Navicyte, Reno, N.Y.) for mannitol transport study. The aperture area of the chambers is 0.64 cm^2. The corneal area exposed was expected to be slightly greater than the chamber aperture area due to corneal curvature. ^3H-mannitol (1.5 ml; 1 μCi/ml) was placed in the donor chamber (epithelial to endothelial transport) and plain assay buffer (1.5 ml) was placed in the receiver chamber. At various time points up to 4 hours, 200 μl samples were removed from the receiver chamber and replaced with an equal volume of fresh assay buffer. To each sample, 4 ml of scintillation fluid (Fisher Scientific, NJ) was added and the radioactivity was quantified using a liquid scintillation counter. […] Data are expressed as mean±standard deviation for n=4.

LHRH-receptor = test: Receptor binding assays (kinetic, saturation, competition) with 125I-deslorelin in bovine pituitary and nasal tissue homogenates; settings: for IC50: read-out: Low affinity - IC50 II
Protocol: Radioactivity was measured in the pellet using a Perkin-Elmer γ-counter.
Reprod. […] Reprod. […] Radioactivity was measured in the pellet using a Perkin-Elmer γ-counter. […] The experiment was repeated three times.
Competition Studies: To determine the amount of unlabelled deslorelin required to displace the radioactivity, competition studies were conducted. […] Assays were performed in triplicates. At the end of 4 hr, the incubation tubes were centrifuged at 10,000 g for 20 min at 4° C. to separate the bound fraction. Radioactivity was measured in the pellet using a Perkin-Elmer γ-counter. The same controls as in the kinetic and saturation studies were used. The experiment was repeated three times.

[5] = in vivo, cited from earlier work
[6] = versus unconjugated nanoparticles, 37° C.
[7] = Corneal Epithelium, 50 μl of 1 mg/ml
[8] = Corneal Stroma, 50 μl of 1 mg/ml

## Transferrin-CA: transferrin-carboxylate-conjugated polystyrene nanoparticles
[1]; 37° C.
  uptake in bovine conjunctiva at the end of 4 hours: 2.83±0.03%
[1]; 37° C., 100 μg/ml donor
  cumulative transport in 4 hours across conjunctiva: 3.5±0.1%
[1]; versus 37° C.
  reduction in conjunctival uptake at 4° C.: 52%
  reduction in the cumulative transport in conjunctiva at 4° C.: 89%
[1]; [6]
  increase of percent transport across conjunctiva by conjugation: 51%
[2]
  Zeta potential: −29.24 ± 4.33 mV
[2]; 1:1000 dilution in filtered deionized water, includes hydrodynamic layer, n = 3
  Measured Diameter: 84.7 ± 0.8 nm
Excised bovine cornea; 37° C.
  uptake by isolated bovine cornea at the end of 4 hours: 2.36±0.03%
Excised bovine cornea; 37° C., 100 μg/ml donor
  cumulative transport in 4 hours across isolated bovine cornea: 2.76±0.03%
Excised bovine cornea; versus 37° C.
  reduction in corneal uptake at 4° C.: 47%
Excised bovine cornea; [6]
  increase of percent transport across bovine cornea by conjugation: 74%
[3]; Control (4° C.)
  Corneal epithelial uptake (60 min): 307.1 ± 124 ng/mg tissue/mg dose
[3]; Control (37° C.)
  Corneal epithelial uptake (60 min): 1146.3 ± 306.6 ng/mg tissue/mg dose
[3]; [7]
  Concentration at 5 min: 791 ± 239 ng/mg tissue/mg dose
  Concentration at 60 min: 1146 ± 307 ng/mg tissue/mg dose
  NP uptake at 5 min (%): 4.96%
  NP uptake at 60 min (%): 7.19%
[3]; [8]
  NP uptake at 5 min (%): 10.98%
  NP uptake at 60 min (%): 3.31%
[3]; With free ligand (37° C.), free deslorelin or transferrin 1 mg/ml
  Corneal epithelial uptake (60 min): 467.1 ± 131.9 ng/mg tissue/mg dose
[3]; summary of Examples 5-8
  total corneal uptake in 5 min: ~16%

## OC[C@@H](O)[C@@H](O)[C@H](O)[C@H](O)CO [mannitol]
[4]; corneas isolated at 5 min following 50 μl assay buffer drop
  Papp at 4 h, 1 μCi/ml: 0.5 ± 0.1 ×10⁻⁶ cm/s
[4]; corneas isolated at 60 min following 50 μl assay buffer drop
  Papp at 4 h, 1 μCi/ml: 0.47 ± 0.04 ×10⁻⁶ cm/s
[4]; freshly isolated corneas
  Papp at 4 h, 1 μCi/ml: 0.4 ± 0.1 ×10⁻⁶ cm/s

## CCNC(=O)[C@@H]1CCCN1C(=O)[C@H](CCCN=C(N)N)NC(=O)[C@H](CC(C)C)NC(=O)[C@@H](Cc1c[nH]c2ccccc12)NC(=O)[C@H](Cc1ccc(O)cc1)NC(=O)[C@H](CO)NC(=O)[C@H](Cc1c[nH]c2ccccc12)NC(=O)[C@H](Cc1cnc[nH]1)NC(=O)[C@@H]1CCC(=O)N1 [deslorelin]
LHRH-receptor; ITP
  IC50: 32.9 ± 1.25 nM
LHRH-receptor; MTA
  IC50: 53.2 ± 4 nM
LHRH-receptor; MTP
  IC50: 42.1 ± 1.83 nM
LHRH-receptor; Pituitary, competition with 125I-deslorelin
  IC50: 17.9 ± 0.449 nM
LHRH-receptor; competition studies, nasal tissue regions
  high affinity binding sites as share of all the binding sites available: 60-70%

## CCNC(=O)[C@@H]1CCCN1C(=O)[C@H](CCCNC(=N)N)NC(=O)[C@H](CC(C)C)NC(=O)[C@@H](CC(C)C)NC(=O)[C@H](Cc1ccc(O)cc1)NC(=O)[C@H](CO)NC(=O)[C@H](Cc1c[nH]c2ccccc12)NC(=O)[C@H](Cc1c[nH]cn1)NC(=O)[C@@H]1CCC(=O)N1 [leuprolide]
[5]; inhaled or intranasal
  bioavailability: 2.9%
[5]
  bioavailability: 28%

From patent US8821943B2, “Methods and compositions for targeted delivery of therapeutic agents” (Board of Regents of the University of Nebraska, priority 2006, dated 2014)
